Patent publication US20250326828A1 (STAIDSON BEIJING BIOPHARMACEUTICALS, published 2025)

T1: human GDF15-hFc (human)
T1 construct: Recombinant hFc-tagged fusion protein expressed in 293F cells
T1 chain: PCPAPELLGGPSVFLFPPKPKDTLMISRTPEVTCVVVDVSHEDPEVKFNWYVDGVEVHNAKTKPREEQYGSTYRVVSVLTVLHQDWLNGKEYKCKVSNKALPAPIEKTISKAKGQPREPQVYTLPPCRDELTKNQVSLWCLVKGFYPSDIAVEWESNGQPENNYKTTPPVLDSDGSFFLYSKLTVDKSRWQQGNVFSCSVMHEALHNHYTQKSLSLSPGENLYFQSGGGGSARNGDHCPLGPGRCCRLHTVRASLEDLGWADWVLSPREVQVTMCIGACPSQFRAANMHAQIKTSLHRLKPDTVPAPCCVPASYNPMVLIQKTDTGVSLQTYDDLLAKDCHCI

T2: human GDF15-his (human)
T2 construct: Recombinant His-tagged fusion protein expressed in 293F cells
T2 chain: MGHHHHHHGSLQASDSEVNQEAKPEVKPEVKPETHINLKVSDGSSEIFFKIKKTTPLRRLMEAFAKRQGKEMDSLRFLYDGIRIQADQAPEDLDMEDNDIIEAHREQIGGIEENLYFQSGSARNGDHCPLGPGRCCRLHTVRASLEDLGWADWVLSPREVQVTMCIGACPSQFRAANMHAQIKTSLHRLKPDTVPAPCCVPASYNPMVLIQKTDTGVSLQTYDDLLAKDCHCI


Legend:
[1] = target: T1, human GDF15-hFc; assay: competition ELISA as in Example 2; GFRAL-his coated, antibody titrated against human GDF15-hFc
Protocol: (§1) The ELISA assay was performed to measure the inhibitory activity of anti-GDF15 antibodies in concentration gradients to block GDF15 binding to GFRAL receptor. IC₅₀ values were used as a measure for neutralizing activity of candidate molecules. Briefly, 96-well plates were coated with 100 ng/well of GFRAL-his protein (SEQ ID NO: 74), and incubated for 1 h at 37° C. The plates were washed with PBST and then blocked for 1 hour at 37° C. with 1% BSA. Gradient-diluted antibodies (dose range 0˜10 μg/ml) was added into each well, immediately followed by equal volume of human GDF15-hFc protein ([…]). After incubation and washing, 100 μl of anti-human IgG secondary antibody (goat anti-human IgG-HRP, Sigma, A8667) was added to each well. Finally, TMB solution (100 μl/well) was added. 2M H₂SO₄ was used to stop the reaction. The OD450 was measured and the binding curve was generated by PRISM to calculate the IC₅₀ value.

[2] = target: T2, human GDF15-his; assay: ELISA as in Example 2; antibody coated, human GDF15-his titrated
Protocol: (§2) ELISA binding assay: The purified monoclonal antibody was subjected to a binding assay with human GDF15-his protein. The binding assay was designed to characterize the binding activity of the anti-GDF15 antibody. Briefly, a 96-well plate was coated with anti-GDF15 antibody (200 ng/well) and incubated for 1 hour at 37° C. The plates were washed with PBST and then blocked for 1 hour at room temperature using 1% BSA. Then 100 µl/well of gradient-diluted human GDF15-his solution (dose range 0-50 μg/ml) was added into plates. After incubation, 100 μl of anti-his tag secondary antibody (anti-his-HRP (1:2000), Bersee, cat #BHR790) was added to each well. Finally, the TMB solution (100 μl/well) was added. 2M H₂SO₄ was used to stop the reaction. The OD450 was measured, and the binding curves were generated by PRISM software to analyze the affinity of candidate antibodies to human GDF15 antigen, and EC₅₀ value were calculated.

[3] = target: T2, human GDF15-his; assay: cell-based or functional assay
[4] = target: T1, human GDF15-hFc; assay: competition ELISA; GFRAL-his coated, antibody titrated against human GDF15-hFc, anti-human IgG-HRP detection
Protocol: as §1

[5] = target: T2, human GDF15-his; assay: cell-based or functional assay
[6] = target: T2, human GDF15-his; assay: cell-based or functional assay
[7] = target: T2, human GDF15-his; assay: ELISA as in Example 2: plate coated with the antibody, graded human GDF15-his, anti-his-HRP, OD450; the sheet's x axis reads 'Log GDF15 Antibody (nM)'
Protocol: as §2

| IC50 [1] | EC50 [2] | IC50, GFRAL/RET reporter cell assay as in Example 2 [3] | IC50 [4] | IC50, 293T-GFRAL/RET-Luc SRE luciferase reporter cells stimulated with human GDF15-his (15 ng/ml) [5] | IC50 (read off the curve), SRE-luciferase signal in 293T-GFRAL/RET-Luc cells with human GDF15-his [6] | EC50 (read off the curve) [7] | Binder |
| --- | --- | --- | --- | --- | --- | --- | --- |
| 1 nM | 142 nM | 0.11 nM |  |  |  |  | hum_R54-1 (antibody, V domains shown, Tested in human IgG1 format) VH: EVQLLESGGGLVQPGGSLRLSCAVSGFSLSSYDMTWVRQAPGKGLEWIGIISGSGNTYYASWAKGRFTISRDNSKNTVYLQMNSLRAEDTAVYFCARGILVYADYGDHNLWGQGTLVTVSS VL: DIVMTQSPATLSVSPGERATLSCQASEDIYTNLAWFQQKPGQPPRLLIYAASTLASGIPARFSGSGSGTEFTLTISSLQSEDFAVYFCLGVYTYISAEGAFGQGTKVEIK |
| 0.8 nM | 156 nM | 0.1 nM |  |  |  |  | hum_R54-2 (antibody, V domains shown, Tested in human IgG1 format) VH: EVQLLESGGGLVQPGGSLRLSCAVSGFSLSSYDMTWVRQAPGKGLEWIGIISSSGNTYYASWAKGRFTISRDNSKNTVYLQMNSLRAEDTAVYFCARGILVYADYGDHNLWGQGTLVTVSS VL: DIVMTQSPATLSVSPGERATLSCQASEDIYTNLAWFQQKPGQPPRLLIYAASTLASGIPARFSGSGSGTEFTLTISSLQSEDFAVYFCLGVYTYISAEGAFGQGTKVEIK |
| 1 nM | 91.7 nM | 0.03 nM |  |  |  |  | hum_R54-8 (antibody, V domains shown, Tested in human IgG1 format) VH: EVQLLESGGGLVQPGGSLRLSCAVSGFSLSSYDMTWVRQAPGKGLEWIGIISGSGSTYYASWAKGRFTISKDSSKNTVYLQMNSLRAEDTAVYFCARGILVYADYGDHNLWGQGTLVTVSS VL: DIVMTQSPATLSVSPGERATLSCQASEDIYTNLAWFQQKPGQPPRLLIYAASTLASGIPARFSGSGSGTEFTLTISSLQSEDFAVYYCLGVYTYISAEGAFGQGTKVEIK |
| 1.49 nM | 123 nM | 0.05 nM |  |  |  |  | hum_R54-6 (antibody, V domains shown, Tested in human IgG1 format) VH: EVQLLESGGGLVQPGGSLRLSCAVSGFSLSSYDMTWVRQAPGKGLEWIGIISSSGNTYYASWAKGRFTISKDSSKNTVYLQMNSLRAEDTAVYFCARGILVYADYGDHNLWGQGTLVTVSS VL: DIVMTQSPATLSVSPGERATLSCQASEDIYTNLAWFQQKPGQPPRLLIYAASTLASGIPARFSGSGSGTEFTLTISSLQSEDFAVYYCLGVYTYISAEGAFGQGTKVEIK |
| 1.36 nM | 111 nM | 0.04 nM |  |  |  |  | hum_R54-7 (antibody, V domains shown, Tested in human IgG1 format) VH: EVQLLESGGGLVQPGGSLRLSCAVSGFSLSSYDMTWVRQAPGKGLEWIGIISNSGSTYYASWAKGRFTISKDSSKNTVYLQMNSLRAEDTAVYFCARGILVYADYGDHNLWGQGTLVTVSS VL: DIVMTQSPATLSVSPGERATLSCQASEDIYTNLAWFQQKPGQPPRLLIYAASTLASGIPARFSGSGSGTEFTLTISSLQSEDFAVYYCLGVYTYISAEGAFGQGTKVEIK |
| 1.24 nM | 173 nM | 0.07 nM |  |  |  |  | hum_R54-3 (antibody, V domains shown, Tested in human IgG1 format) VH: EVQLLESGGGLVQPGGSLRLSCAVSGFSLSSYDMTWVRQAPGKGLEWIGIISNSGSTYYASWAKGRFTISRDNSKNTVYLQMNSLRAEDTAVYFCARGILVYADYGDHNLWGQGTLVTVSS VL: DIVMTQSPATLSVSPGERATLSCQASEDIYTNLAWFQQKPGQPPRLLIYAASTLASGIPARFSGSGSGTEFTLTISSLQSEDFAVYFCLGVYTYISAEGAFGQGTKVEIK |
| 0.89 nM | 98.4 nM | 0.08 nM |  |  |  |  | hum_R54-5 (antibody, V domains shown, Tested in human IgG1 format) VH: EVQLLESGGGLVQPGGSLRLSCAVSGFSLSSYDMTWVRQAPGKGLEWIGIISGSGNTYYASWAKGRFTISKDSSKNTVYLQMNSLRAEDTAVYFCARGILVYADYGDHNLWGQGTLVTVSS VL: DIVMTQSPATLSVSPGERATLSCQASEDIYTNLAWFQQKPGQPPRLLIYAASTLASGIPARFSGSGSGTEFTLTISSLQSEDFAVYYCLGVYTYISAEGAFGQGTKVEIK |
| 1.14 nM | 167 nM | 0.08 nM |  |  |  |  | hum_R54-4 (antibody, V domains shown, Tested in human IgG1 format) VH: EVQLLESGGGLVQPGGSLRLSCAVSGFSLSSYDMTWVRQAPGKGLEWIGIISGSGSTYYASWAKGRFTISRDNSKNTVYLQMNSLRAEDTAVYFCARGILVYADYGDHNLWGQGTLVTVSS VL: DIVMTQSPATLSVSPGERATLSCQASEDIYTNLAWFQQKPGQPPRLLIYAASTLASGIPARFSGSGSGTEFTLTISSLQSEDFAVYFCLGVYTYISAEGAFGQGTKVEIK |
|  |  |  | 1.63 nM | 0.27 nM |  |  | GDF-R40-rabIg1 (antibody, V domains shown, Full-length rabbit antibody: rabbit IgG1 heavy constant and rabbit light constant; also called GDF15-R40-rabIg1) VH: QSVKESEGRLVTPGTPLTLTCTASGFSLSSHWMSWVRQAPGKGLEWIGFVSPSGRAYYTSWVNGRFTISKTSTTVDLKITSPTTEDTATYFCARGYTSGLDIWGPGTLVTVSS VL: AIDMTQTPSPVSATVGGTVTISCQSSKSVVNGDWLAWYQQKPGQPPKLLIYDAATLASGVPSRFKGSGSGTQFTLTISDVQCADAATYYCAGVYNNDSDNGFGGGTEVVVK |
| 1.74 nM |  |  |  |  | ~0.2 nM | ~50 nM | hum_R37-1 (antibody, V domains shown, Tested in human IgG1 format) VH: EVQLVESGGGLVKPGGSLRLSCAASGFSLSNYYMSWVRQAPGKGLEWIGMISFSGTTYATWAKGRFTISKDSSKNTVYLQINSLKTEDTAVYFCARVVYAGWTYPLGIWGQGTLVTVSS VL: DIQLTQSPSSLSASVGDRVTITCQASQSISSVLSWYQQKPGKPPKALIYEASILASGVPSRFSGSGSGTDFTLTISSLQPEDFATYYCQANYDVYNYGNPFGGGTKVEIK |
| 1.73 nM |  |  |  |  | ~0.1 nM | ~60 nM | hum_R37-3 (antibody, V domains shown, Tested in human IgG1 format) VH: EVQLVESGGGLVKPGGSLRLSCAASGFSLSNYYMSWVRQAPGKGLEWIGMISFSGTTYATWAKGRFTISKDDSKNTVYLQINSLKTEDTAVYFCARVVYAGWTYPLGIWGQGTLVTVSS VL: DIQLTQSPSSLSASVGDRVTITCQASQSISSVLSWYQQKPGKPPKALIYEASILASGVPSRFSGSGSGTDFTLTISSLQPEDFATYYCQANYDVYNYGNPFGGGTKVEIK |
|  |  |  | 1.62 nM | 0.19 nM |  |  | GDF-R46-rabIg1 (antibody, V domains shown, Full-length rabbit antibody: rabbit IgG1 heavy constant and rabbit light constant; also called GDF15-R46-rabIg1) VH: SQTVKESGGRLVTPGTPLTLTCTASGFSLSNYYMSWVRQAPGEGLEWIGMISFSGTTHATWAKGRFTISKTSTTVDLKITSPTSEDTATYFCARVVYAGWTYPLGIWGPGTLVTVSS VL: AQVMTQTPASVSEPVGGTVTIKCQASQSISSVLSWYQQKPGQPPKVLIYEASTLASGVPSRFKGSGSGTDFTLAISDLECADAATYYCQANYDVYNYGNPFGGGTEVVVK |
